Molecular target: T1, DG-PprI patch 1 mutant (Deinococcus geothermalis, UniProt Q1J1D6 1-289, R85A;R207A;R267A)
T1 sequence: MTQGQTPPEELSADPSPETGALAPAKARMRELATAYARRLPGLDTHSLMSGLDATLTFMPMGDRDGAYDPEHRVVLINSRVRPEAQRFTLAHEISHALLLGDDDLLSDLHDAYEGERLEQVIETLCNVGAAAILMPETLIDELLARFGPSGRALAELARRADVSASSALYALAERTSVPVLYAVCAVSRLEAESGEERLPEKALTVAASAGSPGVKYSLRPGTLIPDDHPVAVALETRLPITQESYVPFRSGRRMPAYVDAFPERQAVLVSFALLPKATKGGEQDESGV
Assay: EMSA; EMSA: 150 mM NaCl, 20 mM Tris-HCl pH 8.0, 0.1 mg/ml BSA, 0.1 uM FAM-labeled nucleic acid, 0/1/2 uM protein, room temperature 30 min, 10% native PAGE in 1x TB
Conditions: protein: recombinant; label: 5' FAM

CGCTCTTCGCCATTCTCTTGAAGTTTCAAACTTGG (ssDNA) [35nt ssDNA]
binding result: no binding

— publication PMC10904395, “The Deinococcus protease PprI senses DNA damage by directly interacting with single-stranded DNA”
